From the supplement of paper PMC11908140

B1: library; numbered along this chain (parent)
chain: MRKPRAAVGSGHRKQAASQEGRQKHAKNNSQAKPSACDGLARQPEEVVLQASVSSYHLFRDVAEVTAFRGSLLSWYDQEKRDLPWRRRAEDEMDLDRRAYAVWVSEVMLQQTQVATVINYYTGWMQKWPTLQDLASASLEEVNQLWAGLGYYSRGRRLQEGARKVVEELGGHMPRTAETLQQLLPGVGRYTAGAIASIAFGQATGVVDGNVARVLCRVRAIGADPSSTLVSQQLWGLAQQLVDPARPGDFNQAAMELGATVCTPQRPLCSQCPVESLCRARQRVEQEQLLASGSLSGSPDVEECAPNTGQCHLCLPPSEPWDQTLGVVNFPRKASRKPPREESSATCVLEQPGALGAQILLVQRPNSGLLAGLWEFPSVTWEPSEQLQRKALLQELQRWAGPLPATHLRHLGEVVHTFSHIKLTYQVYGLALEGQTPVTTVPPGARWLTQEEFHTAAVSTAMKKVFRVYQGQQPGTCMGSKRSQVSSPCSRKKPRMGQQVLDNFFRSHISTDAHSLNSAAQ

Variants of: B1
Experiment: 8OG:A repair function score (normalized; synonymous = 0, nonsense = -1) (normalized log-likelihood score); higher = more repair activity (WT-like)
Conditions: with 8OG:A DNA repair reporter (GFP) in HEK-293 MUTYH KO cells
Procedure, shortened: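 With 10 pg/ml doxycycline, MUTYH knockout HEK-293 cells carrying lentiviral MUTYH cDNA NNN codon-scan libraries were co-transfected with mCherry and an 8OG:A GFP repair reporter. Viable mCherry+ cells were sorted into GFP+ (repair) and GFP− bins at 72 h, three replicates per tile, and tile amplicons were sequenced. Per-tile Rosace fitness scores were then normalized into a repair function score anchored on synonymous and nonsense distributions. Medians were fixed at 0 for synonymous and -1 for nonsense, excluding variants under 300 counts per million at the start.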

Variant	8OG:A repair function score
MRKPRAAVGSGHRKQAASQEGRQKHAKNNSQAKPSACDGLARQPEEVVLQASVSSYHLFRDVAEVTAFRGSLLSWYDQEKRDLPWRRRAEDEMDLDRRAYAVWVSEVMLQQTQVATVINYYTGWMQKWPTLQDLASASLEEVNQLWAGLGYYSRGRRLQEGARKVVEELGGHMPRTAETLQQLLPGVGRYTAGAIASIAFGQATGVVDGNVARVLCRVRAIGADPSSTLVSQQLWGLAQQLVDPARPGDFNQAAMELGATVCTPQRPLCSQCPVESLCRARQRVQQEQLLASGSLSGSPDVEECAPNTGQCHLCLPPSEPWDQTLGVVNFPRKASRKPPREESSATCVLEQPGALGAQILLVQRPNSGLLAGLWEFPSVTWEPSEQLQRKALLQELQRWAGPLPATHLRHLGEVVHTFSHIKLTYQVYGLALEGQTPVTTVPPGARWLTQEEFHTAAVSTAMKKVFRVYQGQQPGTCMGSKRSQVSSPCSRKKPRMGQQVLDNFFRSHISTDAHSLNSAAQ [E285Q]	-0.00364
MRKPRAAVGSGHRKQAASQEGRQKHAKNNSQAKPSACDGLARQPEEVVLQASVSSYHLFRDVAEVTAFRGSLLSWYDQEKRDLPWRRRAEDEMDLDRRAYAVWVSEVMLQQTQVATVINYYTGWMQKWPTLQDLASASLEEVNQLWAGLGYYSRGRRLQEGARKVVEELGGHMPRTAETLQQLLPGVGRYTAGAIASIAFGQATGVVDGNVARVLCRVRAIGADPSSTLVSQQLWGLAQQLVDPARPGDFNQAAMELGATVCTPQRPLCSQCPVESLCRARQRVMQEQLLASGSLSGSPDVEECAPNTGQCHLCLPPSEPWDQTLGVVNFPRKASRKPPREESSATCVLEQPGALGAQILLVQRPNSGLLAGLWEFPSVTWEPSEQLQRKALLQELQRWAGPLPATHLRHLGEVVHTFSHIKLTYQVYGLALEGQTPVTTVPPGARWLTQEEFHTAAVSTAMKKVFRVYQGQQPGTCMGSKRSQVSSPCSRKKPRMGQQVLDNFFRSHISTDAHSLNSAAQ [E285M]	-9.17e-05
MRKPRAAVGSGHRKQAASQEGRQKHAKNNSQAKPSACDGLARQPEEVVLQASVSSYHLFRDVAEVTAFRGSLLSWYDQEKRDLPWRRRAEDEMDLDRRAYAVWVSEVMLQQTQVATVINYYTGWMQKWPTLQDLASASLEEVNQLWAGLGYYSRGRRLQEGARKVVEELGGHMPRTAETLQQLLPGVGRYTAGAIASIAFGQATGVVDGNVARVLCRVRAIGADPSSTLVSQQLWGLAQQLVDPARPGDFNQAAMELGATVCTPQRPLCSQCPVESLCRARQRVPQEQLLASGSLSGSPDVEECAPNTGQCHLCLPPSEPWDQTLGVVNFPRKASRKPPREESSATCVLEQPGALGAQILLVQRPNSGLLAGLWEFPSVTWEPSEQLQRKALLQELQRWAGPLPATHLRHLGEVVHTFSHIKLTYQVYGLALEGQTPVTTVPPGARWLTQEEFHTAAVSTAMKKVFRVYQGQQPGTCMGSKRSQVSSPCSRKKPRMGQQVLDNFFRSHISTDAHSLNSAAQ [E285P]	-0.129
MRKPRAAVGSGHRKQAASQEGRQKHAKNNSQAKPSACDGLARQPEEVVLQASVSSYHLFRDVAEVTAFRGSLLSWYDQEKRDLPWRRRAEDEMDLDRRAYAVWVSEVMLQQTQVATVINYYTGWMQKWPTLQDLASASLEEVNQLWAGLGYYSRGRRLQEGARKVVEELGGHMPRTAETLQQLLPGVGRYTAGAIASIAFGQATGVVDGNVARVLCRVRAIGADPSSTLVSQQLWGLAQQLVDPARPGDFNQAAMELGATVCTPQRPLCSQCPVESLCRARQRVIQEQLLASGSLSGSPDVEECAPNTGQCHLCLPPSEPWDQTLGVVNFPRKASRKPPREESSATCVLEQPGALGAQILLVQRPNSGLLAGLWEFPSVTWEPSEQLQRKALLQELQRWAGPLPATHLRHLGEVVHTFSHIKLTYQVYGLALEGQTPVTTVPPGARWLTQEEFHTAAVSTAMKKVFRVYQGQQPGTCMGSKRSQVSSPCSRKKPRMGQQVLDNFFRSHISTDAHSLNSAAQ [E285I]	-0.0117
MRKPRAAVGSGHRKQAASQEGRQKHAKNNSQAKPSACDGLARQPEEVVLQASVSSYHLFRDVAEVTAFRGSLLSWYDQEKRDLPWRRRAEDEMDLDRRAYAVWVSEVMLQQTQVATVINYYTGWMQKWPTLQDLASASLEEVNQLWAGLGYYSRGRRLQEGARKVVEELGGHMPRTAETLQQLLPGVGRYTAGAIASIAFGQATGVVDGNVARVLCRVRAIGADPSSTLVSQQLWGLAQQLVDPARPGDFNQAAMELGATVCTPQRPLCSQCPVESLCRARQRVLQEQLLASGSLSGSPDVEECAPNTGQCHLCLPPSEPWDQTLGVVNFPRKASRKPPREESSATCVLEQPGALGAQILLVQRPNSGLLAGLWEFPSVTWEPSEQLQRKALLQELQRWAGPLPATHLRHLGEVVHTFSHIKLTYQVYGLALEGQTPVTTVPPGARWLTQEEFHTAAVSTAMKKVFRVYQGQQPGTCMGSKRSQVSSPCSRKKPRMGQQVLDNFFRSHISTDAHSLNSAAQ [E285L]	-0.000221
MRKPRAAVGSGHRKQAASQEGRQKHAKNNSQAKPSACDGLARQPEEVVLQASVSSYHLFRDVAEVTAFRGSLLSWYDQEKRDLPWRRRAEDEMDLDRRAYAVWVSEVMLQQTQVATVINYYTGWMQKWPTLQDLASASLEEVNQLWAGLGYYSRGRRLQEGARKVVEELGGHMPRTAETLQQLLPGVGRYTAGAIASIAFGQATGVVDGNVARVLCRVRAIGADPSSTLVSQQLWGLAQQLVDPARPGDFNQAAMELGATVCTPQRPLCSQCPVESLCRARQRVVQEQLLASGSLSGSPDVEECAPNTGQCHLCLPPSEPWDQTLGVVNFPRKASRKPPREESSATCVLEQPGALGAQILLVQRPNSGLLAGLWEFPSVTWEPSEQLQRKALLQELQRWAGPLPATHLRHLGEVVHTFSHIKLTYQVYGLALEGQTPVTTVPPGARWLTQEEFHTAAVSTAMKKVFRVYQGQQPGTCMGSKRSQVSSPCSRKKPRMGQQVLDNFFRSHISTDAHSLNSAAQ [E285V]	0.00347
